Molecular target: TREM2 (a.a. 19-134), biotinylated, WT (human) (UniProt Q9NZC2)
Assay: BLI

Chain of TREM2 (a.a. 19-134), biotinylated, WT (human) (Q9NZC2 19-134): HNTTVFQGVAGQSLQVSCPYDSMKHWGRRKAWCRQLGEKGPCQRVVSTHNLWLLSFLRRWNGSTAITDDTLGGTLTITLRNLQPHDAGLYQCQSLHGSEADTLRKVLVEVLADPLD

Question: “oligomeric amyloid beta 42 (oAβ42) WT (peptide)” was tested. Which Kd did it give?
Answer: Its Kd is 0.0425 µM.

— paper doi:10.1101/2024.05.23.595586
